B1: Homo Sapiens Insulin-like Growth Factor Binding Domain Protein 6 (other, UniProt P24592 28-240, looked up, not shown: large carriers)
chain: RCPGCGQGVQAGCPGGCVEEEDGGSPAEGCAEAEGCLRREGQECGVYTPNCAPGLQCHPPKDDEAPLRALLLGRGRCLPARAPAVAEENPKESKPQAGTARPQDVNRRDQQRNPGTSTTPSQPNSAGVQDTEMGPCRRHLDSVLQQLQTEVYRGAQTLYVPNCDHRGFYRKRQCRSSQGQRRGPCWCVDRMGKSLPGSPDGNGSSSCPTGSSG
notes: Prey clone; extent of the clone unknown; also called AD-IP
B2: Homo Sapiens Thyroid Hormone Receptor Alpha (receptor, UniProt P10827-2 1-410, looked up, not shown: large carriers)
chain: MEQKPSKVECGSDPEENSARSPDGKRKRKNGQCSLKTSMSGYIPSYLDKDEQCVVCGDKATGYHYRCITCEGCKGFFRRTIQKNLHPTYSCKYDSCCVIDKITRNQCQLCRFKKCIAVGMAMDLVLDDSKRVAKRKLIEQNRERRRKEEMIRSLQQRPEPTPEEWDLIHIATEAHRSTNAQGSHWKQRRKFLPDDIGQSPIVSMPDGDKVDLEAFSEFTKIITPAITRVVDFAKKLPMFSELPCEDQIILLKGCCMEIMSLRAAVRYDPESDTLTLSGEMAVKREQLKNGGLGVVSDAIFELGKSLSAFNLDDTEVALLQAVLLMSTDRSGLLCVDKIEKSQEAYLLAFEHYVNHRKHNIPHFWPKLLMKVTDLRMIGACHASRFLHMKVECPTELFPPLFLEVFEDQEV
notes: Prey clone; extent of the clone unknown; also called AD-IP; BC000261
B3: Homo Sapiens Annexin A1 (Lipocortin 1 or P35) (other, UniProt P04083 1-346, looked up, not shown: large carriers)
chain: MAMVSEFLKQAWFIENEEQEYVQTVKSSKGGPGSAVSPYPTFNPSSDVAALHKAIMVKGVDEATIIDILTKRNNAQRQQIKAAYLQETGKPLDETLKKALTGHLEEVVLALLKTPAQFDADELRAAMKGLGTDEDTLIEILASRTNKEIRDINRVYREELKRDLAKDITSDTSGDFRNALLSLAKGDRSEDFGVNEDLADSDARALYEAGERRKGTDVNVFNTILTTRSYPQLRRVFQKYTKYSKHDMNKVLDLELKGDIEKCLTAIVKCATSKPAFFAEKLHQAMKGVGTRHKALIRIMVSRSEIDMNDIKAFYQKMYGISLCQAILDETKGDYEKILVALCGGN
notes: Prey clone; extent of the clone unknown; also called AD-IP; BC001275
B4: Homo Sapiens Retinoic Acid Receptor Gamma-1 (receptor, UniProt P13631 1-454, looked up, not shown: large carriers)
chain: MATNKERLFAAGALGPGSGYPGAGFPFAFPGALRGSPPFEMLSPSFRGLGQPDLPKEMASLSVETQSTSSEEMVPSSPSPPPPPRVYKPCFVCNDKSSGYHYGVSSCEGCKGFFRRSIQKNMVYTCHRDKNCIINKVTRNRCQYCRLQKCFEVGMSKEAVRNDRNKKKKEVKEEGSPDSYELSPQLEELITKVSKAHQETFPSLCQLGKYTTNSSADHRVQLDLGLWDKFSELATKCIIKIVEFAKRLPGFTGLSIADQITLLKAACLDILMLRICTRYTPEQDTMTFSDGLTLNRTQMHNAGFGPLTDLVFAFAGQLLPLEMDDTETGLLSAICLICGDRMDLEEPEKVDKLQEPLLEALRLYARRRRPSQPYMFPRMLMKITDLRGISTKGAERAITLKMEIPGPMPPLIREMLENPEMFEDDSSQPGPHPNASSEDEVPGGQGKGGLKSPA
notes: Prey clone; extent of the clone unknown; also called Human Retinoic Acid Receptor Gamma 1; AD-IP
B5: Homo Sapiens Keratin 5 (other, UniProt P13647 1-590, looked up, not shown: large carriers)
chain: MSRQSSVSFRSGGSRSFSTASAITPSVSRTSFTSVSRSGGGGGGGFGRVSLAGACGVGGYGSRSLYNLGGSKRISISTSGGSFRNRFGAGAGGGYGFGGGAGSGFGFGGGAGGGFGLGGGAGFGGGFGGPGFPVCPPGGIQEVTVNQSLLTPLNLQIDPSIQRVRTEEREQIKTLNNKFASFIDKVRFLEQQNKVLDTKWTLLQEQGTKTVRQNLEPLFEQYINNLRRQLDSIVGERGRLDSELRNMQDLVEDFKNKYEDEINKRTTAENEFVMLKKDVDAAYMNKVELEAKVDALMDEINFMKMFFDAELSQMQTHVSDTSVVLSMDNNRNLDLDSIIAEVKAQYEEIANRSRTEAESWYQTKYEELQQTAGRHGDDLRNTKHEISEMNRMIQRLRAEIDNVKKQCANLQNAIADAEQRGELALKDARNKLAELEEALQKAKQDMARLLREYQELMNTKLALDVEIATYRKLLEGEECRLSGEGVGPVNISVVTSSVSSGYGSGSGYGGGLGGGLGGGLGGGLAGGSSGSYYSSSSGGVGLGGGLSVGGSGFSASSGRGLGVGFGSGGGSSSSVKFVSTTSSSRKSFKS
notes: Prey clone of the human keratinocyte AD-cDNA library; whole protein named, extent of the clone unknown; also called AD-IP; BC024292
B6: Homo Sapiens Protein Inhibitor of Activated STAT-3 (PIAS3) (other, UniProt Q9Y6X2 1-628, looked up, not shown: large carriers)
chain: MAELGELKHMVMSFRVSELQVLLGFAGRNKSGRKHELLAKALHLLKSSCAPSVQMKIKELYRRRFPRKTLGPSDLSLLSLPPGTSPVGSPGPLAPIPPTLLAPGTLLGPKREVDMHPPLPQPVHPDVTMKPLPFYEVYGELIRPTTLASTSSQRFEEAHFTFALTPQQVQQILTSREVLPGAKCDYTIQVQLRFCLCETSCPQEDYFPPNLFVKVNGKLCPLPGYLPPTKNGAEPKRPSRPINITPLARLSATVPNTIVVNWSSEFGRNYSLSVYLVRQLTAGTLLQKLRAKGIRNPDHSRALIKEKLTADPDSEVATTSLRVSLMCPLGKMRLTVPCRALTCAHLQSFDAALYLQMNEKKPTWTCPVCDKKAPYESLIIDGLFMEILSSCSDCDEIQFMEDGSWCPMKPKKEASEVCPPPGYGLDGLQYSPVQGGDPSENKKKVEVIDLTIESSSDEEDLPPTKKHCSVTSAAIPALPGSKGVLTSGHQPSSVLRSPAMGTLGGDFLSSLPLHEYPPAFPLGADIQGLDLFSFLQTESQHYGPSVITSLDEQDALGHFFQYRGTPSHFLGPLAPTLGSSHCSATPAPPPGRVSSIVAPGGALREGHGGPLPSGPSLTGCRSDIISLD
notes: Prey clone; extent of the clone unknown; also called AD-IP; BC030556
B7: Homo Sapiens Inner Membrane Protein, Mitochondrial (Mitofilin) (other, UniProt Q16891 1-758, looked up, not shown: large carriers)
chain: MLRACQLSGVTAAAQSCLCGKFVLRPLRPCRRYSTSGSSGLTTGKIAGAGLLFVGGGIGGTILYAKWDSHFRESVEKTIPYSDKLFEMVLGPAAYNVPLPKKSIQSGPLKISSVSEVMKESKQPASQLQKQKGDTPASATAPTEAAQIISAAGDTLSVPAPAVQPEESLKTDHPEIGEGKPTPALSEEASSSSIRERPPEEVAARLAQQEKQEQVKIESLAKSLEDALRQTASVTLQAIAAQNAAVQAVNAHSNILKAAMDNSEIAGEKKSAQWRTVEGALKERRKAVDEAADALLKAKEELEKMKSVIENAKKKEVAGAKPHITAAEGKLHNMIVDLDNVVKKVQAAQSEAKVVSQYHELVVQARDDFKRELDSITPEVLPGWKGMSVSDLADKLSTDDLNSLIAHAHRRIDQLNRELAEQKATEKQHITLALEKQKLEEKRAFDSAVAKALEHHRSEIQAEQDRKIEEVRDAMENEMRTQLRRQAAAHTDHLRDVLRVQEQELKSEFEQNLSEKLSEQELQFRRLSQEQVDNFTLDINTAYARLRGIEQAVQSHAVAEEEARKAHQLWLSVEALKYSMKTSSAETPTIPLGSAVEAIKANCSDNEFTQALTAAIPPESLTRGVYSEETLRARFYAVQKLARRVAMIDETRNSLYQYFLSYLQSLLLFPPQQLKPPPELCPEDINTFKLLSYASYCIEHGDLELAAKFVNQLKGESRRVAQDWLKEARMTLETKQIVEILTAYASAVGIGTTQVQPE
notes: Prey clone; extent of the clone unknown; also called AD-IP; BC002412
B8: Homo Sapiens Nucleoporin 160 Kda (other, UniProt Q12769 1-1436, looked up, not shown: large carriers)
chain: MLHLSAAPPAPPPEVTATARPCLCSVGRRGDGGKMAAAGALERSFVELSGAERERPRHFREFTVCSIGTANAVAGAVKYSESAGGFYYVESGKLFSVTRNRFIHWKTSGDTLELMEESLDINLLNNAIRLKFQNCSVLPGGVYVSETQNRVIILMLTNQTVHRLLLPHPSRMYRSELVVDSQMQSIFTDIGKVDFTDPCNYQLIPAVPGISPNSTASTAWLSSDGEALFALPCASGGIFVLKLPPYDIPGMVSVVELKQSSVMQRLLTGWMPTAIRGDQSPSDRPLSLAVHCVEHDAFIFALCQDHKLRMWSYKEQMCLMVADMLEYVPVKKDLRLTAGTGHKLRLAYSPTMGLYLGIYMHAPKRGQFCIFQLVSTESNRYSLDHISSLFTSQETLIDFALTSTDIWALWHDAENQTVVKYINFEHNVAGQWNPVFMQPLPEEEIVIRDDQDPREMYLQSLFTPGQFTNEALCKALQIFCRGTERNLDLSWSELKKEVTLAVENELQGSVTEYEFSQEEFRNLQQEFWCKFYACCLQYQEALSHPLALHLNPHTNMVCLLKKGYLSFLIPSSLVDHLYLLPYENLLTEDETTISDDVDIARDVICLIKCLRLIEESVTVDMSVIMEMSCYNLQSPEKAAEQILEDMITIDVENVMEDICSKLQEIRNPIHAIGLLIREMDYETEVEMEKGFNPAQPLNIRMNLTQLYGSNTAGYIVCRGVHKIASTRFLICRDLLILQQLLMRLGDAVIWGTGQLFQAQQDLLHRTAPLLLSYYLIKWGSECLATDVPLDTLESNLQHLSVLELTDSGALMANRFVSSPQTIVELFFQEVARKHIISHLFSQPKAPLSQTGLNWPEMITAITSYLLQLLWPSNPGCLFLECLMGNCQYVQLQDYIQLLHPWCQVNVGSCRFMLGRCYLVTGEGQKALECFCQAASEVGKEEFLDRLIRSEDGEIVSTPRLQYYDKVLRLLDVIGLPELVIQLATSAITEAGDDWKSQATLRTCIFKHHLDLGHNSQAYEALTQIPDSSRQLDCLRQLVVVLCERSQLQDLVEFPYVNLHNEVVGIIESRARAVDLMTHNYYELLYAFHIYRHNYRKAGTVMFEYGMRLGREVRTLRGLEKQGNCYLAALNCLRLIRPEYAWIVQPVSGAVYDRPGASPKRNHDGECTAAPTNRQIEILELEDLEKECSLARIRLTLAQHDPSAVAVAGSSSAEEMVTLLVQAGLFDTAISLCQTFKLPLTPVFEGLAFKCIKLQFGGEAAQAEAWAWLAANQLSSVITTKESSATDEAWRLLSTYLERYKVQNNLYHHCVINKLLSHGVPLPNWLINSYKKVDAAELLRLYLNYDLLEEAVDLVSEYVDAVLGKGHQYFGIEFPLSATAPMVWLPYSSIDQLLQALGENSANSHNIALSQKILDKLEDYQQKVDKATRDLLYRRTL
notes: Prey clone; extent of the clone unknown; also called Homo Sapiens Nucleoporin 160 kD (NUP160); AD-IP

These binders were tested against T1, LexA BD-HRt (mouse, UniProt P0A7C2 1-202; Q61645 490-1182) (assay: yeast two-hybrid library screen; number of positive clones with this identity).
T1 construct: domain: Lex A DNA BD;range 490-1182; also called BD-HRt(mouse); Lex A DNA BD-HRt
T1 sequence (looked up): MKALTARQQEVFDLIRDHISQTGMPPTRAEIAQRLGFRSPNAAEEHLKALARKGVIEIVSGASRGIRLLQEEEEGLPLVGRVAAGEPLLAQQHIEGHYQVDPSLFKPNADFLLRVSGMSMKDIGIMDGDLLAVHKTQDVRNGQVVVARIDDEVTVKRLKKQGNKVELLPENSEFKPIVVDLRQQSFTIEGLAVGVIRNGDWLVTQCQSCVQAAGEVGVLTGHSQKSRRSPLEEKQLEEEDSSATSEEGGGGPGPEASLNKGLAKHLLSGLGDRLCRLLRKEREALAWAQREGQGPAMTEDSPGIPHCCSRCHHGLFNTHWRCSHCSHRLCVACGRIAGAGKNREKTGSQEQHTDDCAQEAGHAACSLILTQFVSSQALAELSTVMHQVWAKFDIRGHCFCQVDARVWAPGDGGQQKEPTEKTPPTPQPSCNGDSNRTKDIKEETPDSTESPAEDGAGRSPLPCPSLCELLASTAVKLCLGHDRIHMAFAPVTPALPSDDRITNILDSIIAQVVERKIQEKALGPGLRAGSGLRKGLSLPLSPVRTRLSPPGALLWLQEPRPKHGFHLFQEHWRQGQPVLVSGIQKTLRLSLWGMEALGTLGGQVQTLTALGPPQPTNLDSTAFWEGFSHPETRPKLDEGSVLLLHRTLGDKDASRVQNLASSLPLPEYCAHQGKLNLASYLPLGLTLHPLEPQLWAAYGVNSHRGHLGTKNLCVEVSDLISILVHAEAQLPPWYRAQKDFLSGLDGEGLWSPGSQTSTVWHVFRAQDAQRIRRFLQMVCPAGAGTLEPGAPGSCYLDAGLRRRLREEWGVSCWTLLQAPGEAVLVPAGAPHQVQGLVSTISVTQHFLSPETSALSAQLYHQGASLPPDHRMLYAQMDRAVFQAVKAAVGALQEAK
Source text: Clontech Human Keratinocyte GAL4 cDNA library (complexity 2.5×10⁶) in pACT2 vector was used used to screen for HRt interacting proteins. A Leu⁻, Trp⁻ yeast strain with HIS3 and LACZ reporters for yeasts two hybrid interaction (strain L41) was first transformed with LexA BD-HRt palsmid) for Trp⁺ phenotype. The resulting L41/LexA BD-HR transformant was screened to ensure expression of LexA BD-HRt protein and also for lack of auto activation of the reporter genes HIS3 and LACZ. This strain was transformed with Keratinocyte AD-cDNA library and plated on Trp⁻Leu⁻His⁻ plate to select for clones with positive interaction. Colonies that appeared on selsctive plates were subsequently tested for LACZ expression on X-GAL plates. […] AD-plasmid was rescued from the 90 clones and retested for HRt bait dependance. […] The positive clones are expected to contain an AD-IP (interacting partner) that interacts with BD-HRt.

Row | Binder | Hits
1 | B1 | 1
2 | B2 | 7
3 | B3 | 1
4 | B4 | 1
5 | B5 | 1
6 | B6 | 1
7 | B7 | 3
8 | B8 | 3
